Source: article PMC3115021, “Dynamics of Cdk1 Substrate Specificity during the Cell Cycle” (Molecular Cell, 2011)

Legend:
[1] = target: T1, Clb4-Cdk1 (Saccharomyces cerevisiae, UniProt P00546+P24871); test: Peptide kinetics with the model substrate (data not shown); format: biochemical
T1 construct: made in house
Experimental: (§1) The four major cyclin-Cdk1 complexes used in our experiments seem sufficient for describing
(§2) the general dynamic changes of Cdk1 specificity during the cell cycle, as the rest of the cyclins,
(§3) Clb1 and Clb4 (Grandin and Reed, 1993) as well as Cln3 and Clb6 (Cross et al., 2002; Tyers et
(§4) al., 1993) are less abundant and therefore minor contributors to the total concentration of
(§5) activated Cdk1, and most likely would not yield significant changes to the general model. In
(§6) an intermediate KM (210 μM) for the model substrate (data not shown). However, due to poor
(§7) purification yields, this kinase was excluded from detailed analysis. Additionally, the other G1
(§8) towards the peptide substrate (KM > 1 mM, data not shown).
(§9) Our findings have raised an intriguing question of how cyclins can change the specificity
(§10) of the Cdk1 active site, so that its ability to bind and phosphorylate the consensus site motif is
(§11) altered. These cyclin-specific effects could be due to specific conformational changes induced by
(§12) cyclin in the Cdk1 molecule, resulting in altered accessibility and configuration of its active site.
(§13) of Swe1 to phosphorylate different cyclin-Cdk1 complexes at the active site-gating Y19 residue.
(§14) The other gradually changing feature, the relative differences in RXL-dependent docking
(§15) mechanisms among the B-type cyclin-Cdk1s, could also be due to different specific […]

[2] = target: Cln1-Cdk1 (Saccharomyces cerevisiae, UniProt P00546+P20437); test: as above; format: biochemical
Experimental: as §1, §2, §3, §4, §5, §6, §7, §8, §9, §10, §11, §12, §13, §14, §15

[3] = target: T2, Clb2-Cdk1 (Saccharomyces cerevisiae, UniProt P00546+P24869); settings: higher specificity for mitotic Clb2-Cdk1 than S phase Clb5-Cdk1; ref Loog and Morgan, 2005; cited from earlier work
T2 construct: We purified the four cyclin-Cdk1 complexes from yeast; made in house; host or cells: S. cerevisiae strain DOM0077 (gal-CLB2-TAP, sic1 deleted); Cks1 from bacteria
T2 sequence (P00546 2-298 limits assumed): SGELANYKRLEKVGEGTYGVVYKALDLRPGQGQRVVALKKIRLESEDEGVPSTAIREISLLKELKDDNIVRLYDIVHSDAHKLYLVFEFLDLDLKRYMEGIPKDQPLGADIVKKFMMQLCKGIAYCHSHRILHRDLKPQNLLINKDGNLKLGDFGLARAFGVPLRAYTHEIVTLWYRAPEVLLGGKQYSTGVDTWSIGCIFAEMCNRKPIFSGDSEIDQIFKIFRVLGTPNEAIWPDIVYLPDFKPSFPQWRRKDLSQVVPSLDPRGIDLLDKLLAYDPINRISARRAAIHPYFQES
T2 sequence (P24869 2-491 partner limits assumed): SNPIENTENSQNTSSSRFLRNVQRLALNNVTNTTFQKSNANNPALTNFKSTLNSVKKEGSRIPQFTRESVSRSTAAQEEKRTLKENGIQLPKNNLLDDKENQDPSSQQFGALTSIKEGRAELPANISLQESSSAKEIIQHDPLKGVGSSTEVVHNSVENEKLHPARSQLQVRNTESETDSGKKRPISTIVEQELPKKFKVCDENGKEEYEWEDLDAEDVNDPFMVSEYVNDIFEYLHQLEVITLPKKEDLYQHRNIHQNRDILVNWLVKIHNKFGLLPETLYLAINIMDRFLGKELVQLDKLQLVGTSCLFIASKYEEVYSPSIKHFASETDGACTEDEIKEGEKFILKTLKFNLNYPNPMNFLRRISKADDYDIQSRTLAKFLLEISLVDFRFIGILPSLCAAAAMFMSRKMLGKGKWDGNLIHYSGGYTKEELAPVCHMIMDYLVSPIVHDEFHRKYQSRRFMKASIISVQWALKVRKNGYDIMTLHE
T2 sequence (P20486 whole entry partner): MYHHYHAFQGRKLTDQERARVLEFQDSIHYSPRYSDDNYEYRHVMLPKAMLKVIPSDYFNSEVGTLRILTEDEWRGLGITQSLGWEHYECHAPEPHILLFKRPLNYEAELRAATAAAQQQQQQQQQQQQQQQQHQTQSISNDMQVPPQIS
From the text: To study how different cyclins modulate the substrate specificity of Cdk1, we performed a quantitative analysis of yeast Cdk1 specificity in complex with each of four cyclins: the G1/S cyclin Cln2, the S phase triggering cyclin Clb5, the G2/M cyclin Clb3, and the mitotic cyclin Clb2. The cellular levels of these four cyclins peak in sequence over the course of the cell cycle (Figure 1A). We purified the four cyclin-Cdk1 complexes from yeast (Figure 1D) and analyzed their kinetic properties with a commonly used optimal model substrate for Cdk1, a peptide derived from the general substrate Histo ...

[4] = target: T2, Clb2-Cdk1; test: Quantitative phosphorylation assay of T33-Sic1ΔC constructs and recombinant substrates; format: biochemical; settings: Table S2; purified protein substrate; relative values, not divided by [S]
[5] = target: T3, Clb3-Cdk1 (Saccharomyces cerevisiae, UniProt P00546+P24870); test: as above; format: biochemical; settings: Table S2; purified protein substrate; relative values, not divided by [S]
T3 construct: We purified the four cyclin-Cdk1 complexes from yeast; made in house; host or cells: S. cerevisiae strain DOM0957 (gal-CLB3-TAP, sic1 deleted); Cks1 from bacteria
T3 sequence (P00546 2-298 limits assumed): as the sequence (P00546 2-298 limits assumed) above
T3 sequence (P24870 whole entry partner): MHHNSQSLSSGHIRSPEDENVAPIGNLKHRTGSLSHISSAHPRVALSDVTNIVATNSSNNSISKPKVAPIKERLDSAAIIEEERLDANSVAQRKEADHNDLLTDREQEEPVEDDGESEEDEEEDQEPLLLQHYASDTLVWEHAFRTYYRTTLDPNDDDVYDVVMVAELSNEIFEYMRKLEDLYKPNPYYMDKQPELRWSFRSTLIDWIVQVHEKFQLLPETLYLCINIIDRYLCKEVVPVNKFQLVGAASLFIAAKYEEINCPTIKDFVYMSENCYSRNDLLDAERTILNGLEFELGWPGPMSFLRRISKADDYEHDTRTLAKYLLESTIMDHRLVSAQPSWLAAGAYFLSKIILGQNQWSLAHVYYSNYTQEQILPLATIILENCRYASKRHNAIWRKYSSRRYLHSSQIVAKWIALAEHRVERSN
T3 sequence (P20486 whole entry partner): as the sequence (P20486 whole entry partner) above

[6] = target: T4, Clb5-Cdk1 (Saccharomyces cerevisiae, UniProt P00546+P30283); test: as above; format: biochemical; settings: Table S2; purified protein substrate; relative values, not divided by [S]
T4 construct: We purified the four cyclin-Cdk1 complexes from yeast; made in house; host or cells: S. cerevisiae strain DOM0076 (gal-CLB5-TAP, sic1 deleted); Cks1 from bacteria
T4 sequence (P00546 2-298 limits assumed): as the sequence (P00546 2-298 limits assumed) above
T4 sequence (P30283 whole entry partner): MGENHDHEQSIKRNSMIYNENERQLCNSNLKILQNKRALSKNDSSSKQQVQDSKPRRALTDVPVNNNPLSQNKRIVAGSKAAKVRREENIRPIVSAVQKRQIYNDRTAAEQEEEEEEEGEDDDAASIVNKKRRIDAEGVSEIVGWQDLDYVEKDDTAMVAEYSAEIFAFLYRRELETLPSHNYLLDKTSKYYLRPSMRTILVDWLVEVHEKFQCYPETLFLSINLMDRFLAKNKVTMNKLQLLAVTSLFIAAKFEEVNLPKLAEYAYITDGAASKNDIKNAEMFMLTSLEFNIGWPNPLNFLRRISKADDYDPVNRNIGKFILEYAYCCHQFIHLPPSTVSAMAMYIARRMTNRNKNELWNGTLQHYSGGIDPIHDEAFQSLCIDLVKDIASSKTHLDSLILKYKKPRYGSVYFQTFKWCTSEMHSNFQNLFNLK
T4 sequence (P20486 whole entry partner): as the sequence (P20486 whole entry partner) above

[7] = target: T5, Cln2-Cdk1 (Saccharomyces cerevisiae, UniProt P00546+P20438); test: as above; format: biochemical; settings: Table S2; purified protein substrate; relative values, not divided by [S]
T5 construct: We purified the four cyclin-Cdk1 complexes from yeast; made in house; host or cells: S. cerevisiae strain DMY305 (galactose-induced); Cks1 from bacteria
T5 sequence (P00546 2-298 limits assumed): as the sequence (P00546 2-298 limits assumed) above
T5 sequence (P20438 whole entry partner): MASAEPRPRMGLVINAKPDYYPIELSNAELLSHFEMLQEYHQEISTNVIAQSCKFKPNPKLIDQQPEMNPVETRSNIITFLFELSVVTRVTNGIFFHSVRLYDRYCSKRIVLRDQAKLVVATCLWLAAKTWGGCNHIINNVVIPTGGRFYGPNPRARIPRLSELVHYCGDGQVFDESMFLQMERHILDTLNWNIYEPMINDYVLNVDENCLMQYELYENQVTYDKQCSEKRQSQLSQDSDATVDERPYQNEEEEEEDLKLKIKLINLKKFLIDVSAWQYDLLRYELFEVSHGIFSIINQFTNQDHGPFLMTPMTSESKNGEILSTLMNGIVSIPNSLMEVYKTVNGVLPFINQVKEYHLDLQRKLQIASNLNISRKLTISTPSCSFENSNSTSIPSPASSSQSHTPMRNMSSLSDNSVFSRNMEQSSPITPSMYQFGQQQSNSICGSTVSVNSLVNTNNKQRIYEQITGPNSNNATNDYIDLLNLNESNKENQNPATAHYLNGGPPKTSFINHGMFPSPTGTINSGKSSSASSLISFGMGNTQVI
T5 sequence (P20486 whole entry partner): as the sequence (P20486 whole entry partner) above

[8] = target: T6, Clb2hpm-Cdk1 (Saccharomyces cerevisiae, UniProt P00546); test: as above; format: biochemical; settings: Table S2; purified protein substrate; relative values, not divided by [S]
T6 construct: made in house; host or cells: S. cerevisiae strain DOM0964 (gal-CLB2hpm-TAP, sic1 deleted); Cks1 from bacteria
T6 sequence (P00546 2-298 limits assumed): as the sequence (P00546 2-298 limits assumed) above
How it was run: (§16)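 Yeast cyclin-Cdk1 complexes (1–10 nM, TAP-purified) phosphorylated 6His-T33-Sic1ΔC (other S/T-P sites mutated to Ala-Ala) or recombinant substrates at 0.5–2 μM, below KM, with 32P-γ-ATP. Initial velocities (≤10% turnover) from two or more time points, SDS-PAGE stopped; relative kcat/KM from v0 ratios.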

[9] = target: T7, Clb3hpm-Cdk1 (Saccharomyces cerevisiae, UniProt P00546+P24870); test: as above; format: biochemical; settings: Table S2; purified protein substrate; relative values, not divided by [S]
T7 construct: made in house; host or cells: S. cerevisiae strain MK0168 (gal-CLB3hpm-TAP, sic1 deleted); Cks1 from bacteria
How it was run: as §16

[10] = target: T8, Clb5hpm-Cdk1 (Saccharomyces cerevisiae, UniProt P00546); test: as above; format: biochemical; settings: Table S2; purified protein substrate; relative values, not divided by [S]
T8 construct: made in house; host or cells: S. cerevisiae strain DOM0963 (gal-CLB5hpm-TAP, sic1 deleted); Cks1 from bacteria
T8 sequence (P00546 2-298 limits assumed): as above
How it was run: as §16

T1 sequence (P00546 2-298 limits assumed): as above
T1 sequence (P24871 whole entry partner): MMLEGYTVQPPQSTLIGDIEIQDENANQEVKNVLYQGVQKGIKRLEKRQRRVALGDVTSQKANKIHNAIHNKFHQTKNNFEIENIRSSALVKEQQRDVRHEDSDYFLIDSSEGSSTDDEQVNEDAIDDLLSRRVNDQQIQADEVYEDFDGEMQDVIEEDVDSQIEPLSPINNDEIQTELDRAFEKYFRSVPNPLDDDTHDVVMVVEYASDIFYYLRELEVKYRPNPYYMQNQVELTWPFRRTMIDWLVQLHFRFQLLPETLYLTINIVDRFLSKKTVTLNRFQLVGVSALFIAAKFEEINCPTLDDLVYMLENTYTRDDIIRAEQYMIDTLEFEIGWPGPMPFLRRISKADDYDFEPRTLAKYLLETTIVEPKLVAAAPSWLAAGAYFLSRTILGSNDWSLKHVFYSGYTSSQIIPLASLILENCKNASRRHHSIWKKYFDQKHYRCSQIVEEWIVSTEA
T1 sequence (P20486 whole entry partner): as the sequence (P20486 whole entry partner) above

Molecule | Km [1] | Km [2] | specificity for Clb2-Cdk1 as compared with Clb5-Cdk1 [3] | kcat/KM, Clb2 [4] | kcat/KM, Clb3 [5] | kcat/KM, Clb5 [6] | kcat/KM, Cln2 [7] | kcat/KM, Clb2hpm [8] | kcat/KM, Clb3hpm [9] | kcat/KM, Clb5hpm [10]
PKTPKKAKKL [optimal model substrate for Cdk1, a peptide derived from the general substrate Histone H1] | 210 µM | > 1000 µM | about 20 fold | – | – | – | – | – | – | –
CDH1: protein purified using the baculovirus system, tested as Cdk1 substrate (protein, UniProt P53197 1-566, looked up) APC/C activator protein CDH1: MSTNLNPFMNNTPSSSPLKGSESKRVSKRPISSSSSASLLSSPSRRSRPSTVYGDRYIPSRTDIDFNSIVSISSMASVPALNPSSTEDQVEYQKERQAHETYNTLLKNELFGEMLSKDTVGSESSIDRIKNTRPSTRGNVHAENTTRHGYELERVSTPPPEAAGLEEFSPHSTPVTPRRLFTSQQDEITRPSSNSVRGASLLTYQQRKGRRLSAASLLQSQFFDSMSPVRPDSKQLLLSPGKQFRQIAKVPYRVLDAPSLADDFYYSLIDWSSTDVLAVALGKSIFLTDNNTGDVVHLCDTENEYTSLSWIGAGSHLAVGQANGLVEIYDVMKRKCIRTLSGHIDRVACLSWNNHVLTSGSRDHRILHRDVRMPDPFFETIESHTQEVCGLKWNVADNKLASGGNDNVVHVYEGTSKSPILTFDEHKAAVKAMAWSPHKRGVLATGGGTADRRLKIWNVNTSIKMSDIDSGSQICNMVWSKNTNELVTSHGYSKYNLTLWDCNSMDPIAILKGHSFRVLHLTLSNDGTTVVSGAGDETLRYWKLFDKPKAKVQPNSLIFDAFNQIR | – | – | – | 0.035 relative units | 0.024 relative units | 0.025 relative units | 0.016 relative units | 0.023 relative units | 0.008 relative units | 0.006 relative units
EXO84: purified yeast protein tested as Cdk1 substrate (protein, UniProt P38261 1-753, looked up) Exocyst complex component …: MVEFSLKKARNNWKHVKKSASSPAKQKTPPSPAKPKQKTKKNPYSDLKDPATSYTLPTINARERSRVATSMQRRLSIHNTNYAPPTLDYSMPLPDMPNMIVPNDNVDSSHNNSSFTTENESVSSKGPSNSLNLSTADLSLNDSSYNKVPARSAMRNTVNPSGSNDPFNNSTSLRKMLANPHFNAKDFVHDKLGNASAITIDKFTSNLTDLSIQVQEEVKLNINKSYNEIMTVNNDLNVAMLELKRVRANINDLNEVLDQCTKIAEKRLQLQDQIDQERQGNFNNVESHSNSPALLPPLKAGQNGNLMRRDRSSVLILEKFWDTELDQLFKNVEGAQKFINSTKGRHILMNSANWMELNTTTGKPLQMVQIFILNDLVLIADKSRDKQNDFIVSQCYPLKDVTVTQEEFSTKRLLFKFSNSNSSLYECRDADECSRLLDVIRKAKDDLCDIFHVEEENSKRIRESFRYLQSTQQTPGRENNRSPNKNKRRSMGGSITPGRNVTGAMDQYLLQNLTLSMHSRPRSRDMSSTAQRLKFLDEGVEEIDIELARLRFESAVETLLDIESQLEDLSERISDEELMLLNLISLKIEQRREAISSKLSQSILSSNEIVHLKSGTENMIKLGLPEQALDLFLQNRSNFIQDLILQIGSVDNPTNYLTQLAVIRFQTIKKTVEDFQDIFKELGAKISSILVDWCSDEVDNHFKLIDKQLLNDEMLSPGSIKSSRKQIDGLKAVGLDFVYKLDEFIKKNSDKIR | – | – | – | 0.074 relative units | 0.031 relative units | 0.019 relative units | 0.084 relative units | 0.062 relative units | 0.014 relative units | 0.006 relative units
FAR1: Cdk1 inhibitor Far1, tested as Cdk1 substrate (protein, UniProt P21268 1-830, looked up) Cyclin-dependent kinase …: MKTPTRVSFEKKIHTPPSGDRDAERSPPKKFLRGLSGKVFRKTPEFKKQQMPTFGYIEESQFTPNLGLMMSKRGNIPKPLNLSKPISPPPSLKKTAGSVASGFSKTGQLSALQSPVNITSSNKYNIKATNLTTSLLRESISDSTTMCDTLSDINLTVMDEDYRIDGDSYYEEDSPTFMISLERNIKKCNSQFSPKRYIGEKCLICEESISSTFTGEKVVESTCSHTSHYNCYLMLFETLYFQGKFPECKICGEVSKPKDKDIVPEMVSKLLTGAGAHDDGPSSNMQQQWIDLKTARSFTGEFPQFTPQEQLIRTADISCDGFRTPRLSNSNQFEAVSYLDSPFLNSPFVNKMATTDPFDLSDDEKLDCDDEIDESAAEVWFSKTGGEHVMVSVKFQEMRTSDDLGVLQDVNHVDHEELEEREKEWKKKIDQYIETNVDKDSEFGSLILFDKLMYSDDGEQWVDNNLVILFSKFLVLFDFEEMKILGKIPRDQFYQVIKFNEDVLLCSLKSTNIPEIYLRFNENCEKWLLPKWKYCLENSSLETLPLSEIVSTVKELSHVNIIGALGAPPDVISAQSHDSRLPWKRLHSDTPLKLIVCLNLSHADGELYRKRVLKSVHQILDGLNTDDLLGIVVVGRDGSGVVGPFGTFIGMINKNWDGWTTFLDNLEVVNPNVFRDEKQQYKVTLQTCERLASTSAYVDTDDHIATGYAKQILVLNGSDVVDIEHDQKLKKAFDQLSYHWRYEISQRRMTPLNASIKQFLEELHTKRYLDVTLRLPQATFEQVYLGDMAAGEQKTRLIMDEHPHSSLIEIEYFDLVKQQRIHQTLEVPNL | – | – | – | 0.029 relative units | 0.031 relative units | 0.115 relative units | 0.042 relative units | 0.033 relative units | 0.008 relative units | 0.003 relative units
FIN1: spindle-stabilizing protein, tested as Cdk1 substrate (protein, UniProt Q03898 1-291, looked up) Filament protein FIN1: MSNKSNRRSLRDIGNTIGRNNIPSDKDNVFVRLSMSPLRTTSQKEFLKPPMRISPNKTDGMKHSIQVTPRRIMSPECLKGYVSKETQSLDRPQFKNSNKNVKIQNSDHITNIIFPTSPTKLTFSNENKIGGDGSLTRIRARFKNGLMSPERIQQQQQQHILPSDAKSNTDLCSNTELKDAPFENDLPRAKLKGKNLLVELKKEEEDVGNGIESLTKSNTKLNSMLANEGKIHKASFQKSVKFKLPDNIVTEETVELKEIKDLLLQMLRRQREIESRLSNIELQLTEIPKHK | – | – | – | 12.43 relative units | 10.96 relative units | 23.02 relative units | 1.800 relative units | 14.08 relative units | 7.488 relative units | 3.651 relative units
